Values of other authors, collected in patent US20190076452A1, “THERAPEUTIC COMBINATIONS FOR TREATING NEOPLASIA” (MEDIMMUNE LIMITED, priority 2014, published 2019).

Test system: advanced melanoma
Conditions: compared to the standard of care (temozolomide or dacarbazine); cited from earlier work

B1: tremelimumab: human IgG2 monoclonal antibody highly selective for CTLA-4 (antibody)
VH: GVVQPGRSLRLSCAASGFTFSSYGMHWVRQAPGKGLEWVAVIWYDGSNKYYADSVKGRFTISRDNSKNTLYLQMNSLRAEDTAVYYCARDPRGATLYYYYYGMDVWGQGTTVTVSSASTKGPSVFPLAPCSRSTSESTAALGCLVKDYFPEPVTVSWNSGALTSGVH
VL: PSSLSASVGDRVTITCRASQSINSYLDWYQQKPGKAPKLLIYAASSLQSGVPSRFSGSGSGTDFTLTISSLQPEDFATYYCQQYYSTPFTFGPGTKVEIKRTVAAPSVFIFPPSDEQLKSGTASVVCLLNNFYPREAKV
In the case of B1, the “overall survival of patients” value is given as “did not significantly increase”.
